Values joined by “and” are separate entries in the source; they are usually repeats but may differ in a detail not shown here. Equal entries are not always repeated.
Columns and labels:
[1] = ^3H-PGE2 competition ELISA (prostaglandin selectivity); assay type: binding
Method: Alternatively, prostaglandin selectivity was determined using a ^3H-PGE2 competition ELISA. Plates were coated with 50 μL/well of 5 μg/ml of goat anti-human IgG (Fc) (Thermo Scientific # 31170, Hudson, N.H.) or goat anti-mouse IgG (Fc) (Thermo Scientific # 31125, Hudson, N.H.) in PBS and incubated overnight at 4° C. The following day plates were flicked and blotted dry. Plates were blocked with 200 μL/well of Superblock (Thermo Scientific # 37515, Hudson, N.H.), 1 hour at room temperature. Plates were flicked and blotted dry. Monoclonal antibodies were diluted to 0.04 μg/ml in PBST (Abbott Bioresearch Center, Worcester, Mass.)/10% Superblock and 50 μL of each was added to each well (2 ng/well) of the pre-blocked ELISA plate and incubated for 1 hour at room temperature. Wells were washed 3 times with PBS/0.1% Tween-20. ^3H-PGE2 (Perkin Elmer # NET-428, Waltham, Mass.) was diluted in PBST/10% Superblock to 6 nM (2× stock). Each prostaglandin (Cayman Chemicals, Ann Arbor, Mich.) was prepared in PBST+10% Superblock at various concentrations ranging from 2000 μM (2× stock) to 0.00004 μM (2×). Equal volumes of the ^3H-PGE2 solution and of each prostaglandin dilution were mixed. Fifty microliters of this mixture was then added to each well of the plate and incubated for 1 hour at room temperature. Wells were washed manually 6 times with PBST/10% Superblock and 50 μL of scintillation fluid (Perkin Elmer # 6013621, Waltham, Mass.) added to each well. Plates were read using a TopCount reader (Perkin Elmer, Waltham, Mass.) with a 5 minute count delay. IC50 number was determined using GraphPad Prism 5 (GraphPad Software, La Jolla, Calif.). The cross reactivity index was then calculated by IC50 of PGE2/IC50 of other prostaglandin(s)

[2] = Pharmacokinetics of 2B5.8.0 in Sprague-Dawley rats; assay type: in vivo; details: rat, IV 4 mg/kg
Method: Pharmacokinetic studies with mouse mAb 2B5.8.0 were carried out in Sprague Dawley rats and Balb/C mice. Male and female rats and mice were dosed intravenously or intraperitoneally (mice only) with a single dose of 4 mg/kg 2B5.8.0 and serum samples were analyzed using antigen capture based chemiluminescent MSD (Meso Scale Discovery) method (Meso Scale Discovery, Gaithersburg, Md.). Pharmacokinetic parameters were calculated by non-compartmental analysis using WinNonlin.
The following MSD assay was used to measure antibody concentration in rat and mouse serum. MSD streptavidin plates (Meso Scale Discovery, Gaithersburg, Md.) were washed with phosphate buffered saline containing 0.05% Tween-20 (Sigma, St. Louis, Mo.). Plates were blocked with 250 μL/well blocking solution (MSD Block, Meso Scale Discovery, diluted to 3% final concentration in PBS) for 1 hour, covered, with shaking (600 rpm) at room temperature. After washing, 70 μL of biotinylated PGE2 (Prostoglandin E2-biotinamide, Cayman Chemical, Ann Arbor, Mich., cat# 10006987, lot# 190831-191028, 0.01 ug/mL in assay buffer) was added to each well. The plates were covered and incubated with shaking (600 rpm) for 1 hour at room temperature
Prior to analysis, rat and mouse serum samples were thawed on ice, mixed gently, and centrifuged at 14,000 rpm for 3 minutes at 4° C. in an eppendorf centrifuge. Standard curve and control samples were prepared in rat and mouse serum. A Tecan Evo automated liquid handling station was used to dilute standard curve, high, medium, and low controls, and serum samples in assay buffer, keeping 1% final serum concentration constant. MSD plates were washed again and study samples, standard curve samples and blanks, as well as high, medium, and low controls were added (70 μL/well). The plates were covered, and incubated for 1 hour with shaking (600 rpm) at room temperature.
After incubation, the MSD plates were washed, and 70 μL of sulfo-tagged goat anti-mouse IgG (Meso Scale Discovery; diluted to 1 ug/mL in assay buffer) was added to each well. The MSD plates were covered, and incubated with shaking (600 rpm) for 1 hour at room temperature, then the plates were washed and developed with 2× Read Buffer (Meso Scale Discovery). Chemilumeniscence was measured within ten minutes on the MSD Sector Imager 6000.
Standard curves were analyzed using four-parameter logistic fit and sample concentrations were calculated by XLfit4 software version 2.2.1 Build 16, ([…].). Pharmacokinetic parameters were calculated for each animal using Winonlin software version 5.0.1 (Pharsight Corporation, Mountain View, Calif.) by noncompartmental analysis.
Surgically altered jugular vein cannulated, JVC) and regular male and female Sprague-Dawley Rats (approximately seven weeks old, weighing 240-390 grams) were purchased from Charles River Laboratories (Wilmington, Mass.). The animals were housed in rooms maintained at constant temperature and humidity under 12 hours light/dark cycle, fed with normal rodent chow and were allowed food and water ad libitum. Hydration and clinical conditions of the animals were monitored daily.
Male and female Balb/c mice (weighing approximately 0.025 kg) were purchased from Charles River Laboratories (Wilmington, Mass.). The animals were allowed food and water ad libitum. Blood samples were collected (0.2 mL from the rats via the tail vein and by cardiac puncture from the mice) at various timepoints (5 mice at each timepoint) allowed to clot for 30 minutes at room temperature, centrifuged for 3 minutes at 13,200 rpm, the serum transferred to eppendorf tubes and stored frozen at −80° C.

B1: 2B5-8.0: recombinant anti-PGE2 antibody from solved 2B5 sequence; VH SEQ ID NO 42, VL SEQ ID NO 43 (antibody, V domains shown)
VH: QVQLQQSGPELVRPGSSVKISCKASGYTFTKYWLGWVKQRPGHGLEWIGDIYPGYDYTHYNEKFKDKATLTVDTSSSTAYMQLSSLTSEDSAIYYCARSDGSSTYWGQGTLVTVSA
VL: DVLMTQTPLSLPVSLGDQASISCTSSQNIVHSNGNTYLEWYLQRPGQSPKLLIYKVSNRFSGVPDRFSGSGSGTVFTLKISRVEAEDLGVYYCFQVSHVPYTFGGGTKLEIKR
- PG Selectivity in ^3H-PGE2 competition ELISA (CRI %) 2,3-dinor-6-keto-PGF1α ([1]; 2,3-dinor-6-keto-PGF1α): 0.019%
- PG Selectivity in ^3H-PGE2 competition ELISA (CRI %) 5(S)-HETE ([1]; 5(S)-HETE): <0.01%
- PG Selectivity in ^3H-PGE2 competition ELISA (CRI %) 6-keto PGF1α ([1]; 6-keto PGF1α): 0.64%
- PG Selectivity in ^3H-PGE2 competition ELISA (CRI %) 8-iso PGF2α ([1]; 8-iso PGF2α): 0.092%
- PG Selectivity in ^3H-PGE2 competition ELISA (CRI %) 13,14-dihydroxyl-15-keto PGE2 ([1]; 13,14-dihydroxyl-15-keto PGE2): 0.012%
- PG Selectivity in ^3H-PGE2 competition ELISA (CRI %) 15-keto PGE2 ([1]; 15-keto PGE2): 0.013%
- PG Selectivity in ^3H-PGE2 competition ELISA (CRI %) 15R-Pinane TXA2 ([1]; 15R-Pinane TXA2): 0.00043%
- PG Selectivity in ^3H-PGE2 competition ELISA (CRI %) 19R-hydroxy PGE2 ([1]; 19R-hydroxy PGE2): 0.09%
- PG Selectivity in ^3H-PGE2 competition ELISA (CRI %) Arachidonic acid ([1]; Arachidonic acid): <0.01%
- PG Selectivity in ^3H-PGE2 competition ELISA (CRI %) Carbaprostacyclin ([1]; Carbaprostacyclin): 0.18%
- PG Selectivity in ^3H-PGE2 competition ELISA (CRI %) Carbocyclic TXA2 ([1]; Carbocyclic TXA2): 0.0005%
- PG Selectivity in ^3H-PGE2 competition ELISA (CRI %) Iloprost ([1]; Iloprost): 0.01%
- PG Selectivity in ^3H-PGE2 competition ELISA (CRI %) LTE4 ([1]; LTE4): 0.012%
- PG Selectivity in ^3H-PGE2 competition ELISA (CRI %) PGA2 ([1]; PGA2): 0.04%
- PG Selectivity in ^3H-PGE2 competition ELISA (CRI %) PGB2 ([1]; PGB2): 0.00038%
- PG Selectivity in ^3H-PGE2 competition ELISA (CRI %) PGD2 ([1]; PGD2): <1 × 10^−4%
- PG Selectivity in ^3H-PGE2 competition ELISA (CRI %) PGE1 ([1]; PGE1): 3.6%
- PG Selectivity in ^3H-PGE2 competition ELISA (CRI %) PGE2 ([1]; PGE2): 100%
- PG Selectivity in ^3H-PGE2 competition ELISA (CRI %) PGF2α ([1]; PGF2α): 0.05%
- PG Selectivity in ^3H-PGE2 competition ELISA (CRI %) PGI2 ([1]; PGI2): 0.16%
- PG Selectivity in ^3H-PGE2 competition ELISA (CRI %) Pinane TXA2 ([1]; Pinane TXA2): 0.00033%
- PG Selectivity in ^3H-PGE2 competition ELISA (CRI %) TXB2 ([1]; TXB2): <0.01%
- AUC0-∞ ([2]; female): 12000 ± 4600 µg·h/mL
- CL ([2]; female): 8.88 ± 3.12 mL/day/kg
- MRT ([2]; female): 259 ± 84 h
- Vss ([2]; female): 0.088 ± 0.0062 L/kg
- Vz ([2]; female): 0.101 ± 0.0131 L/kg
- T½ ([2]; female, 4 mg/kg): 214 h and 204 ± 52.8 h
- AUC0-∞ ([2]; male): 9900 ± 700 µg·h/mL
- CL ([2]; male): 9.84 ± 0.72 mL/day/kg
- MRT ([2]; male): 302 ± 38.4 h
- T½ ([2]; male): 218 h
- Vss ([2]; male): 0.122 ± 0.0185 L/kg
- Vz ([2]; male): 0.127 ± 0.0189 L/kg

Reference: patent US8624002B2, “Prostaglandin E2 binding proteins and uses thereof” (AbbVie, Inc., priority 2008, dated 2014)
